The source of these data is paper PMC8065111 (Nature Communications, 2021).

The target in one assay is GST-IQGAP1-DBR (human) (UniProt P46940). Nature of the assay: BLI; Octet RED96; GST-tagged ligands on GST biosensors; analyte 0.5 nM to 5 μM; PBS, 0.002% Tween-20, 0.1 mg/ml BSA; 30 °C; one site-specific binding, saturation curve.
Another assay has as its target DIAPH1 (Homo sapiens) (UniProt O60610). Nature of the assay: BLI. The following applies: cited from earlier work.
In another assay the target is T1, His6-DIAPH1-NT (human, UniProt O60610 1-575).
T1 construct: human DIAPH1, N-terminal fragment, residues 1-575 of the 1272-residue protein; plasmid pET30a-DIAPH1-NT(1-575aa); Plasmid was a gift from J. Copeland; also called N-terminal fragment of DIAPH1; DIAPH1 N-terminal regulatory domains; source: E. coli BL21, purified (nickel-Sepharose)
Nature of the assay: pull-down; 0.05 nmol GST-IQGAP1-DBR immobilised on GST beads, first partner equimolar 1 h, then second partner equimolar 1 h; 25 mM HEPES pH 7.5, 250 mM NaCl, 100 mM KCl, 0.5 mM beta-mercaptoethanol, 1 mM PMSF, 0.1% Triton X-100; 4 °C; anti-His6 and anti-MBP blots. As to conditions: both partners purified.

In assay [1] the target is T2, MBP-CLIP170-NT (human).
T2 chain: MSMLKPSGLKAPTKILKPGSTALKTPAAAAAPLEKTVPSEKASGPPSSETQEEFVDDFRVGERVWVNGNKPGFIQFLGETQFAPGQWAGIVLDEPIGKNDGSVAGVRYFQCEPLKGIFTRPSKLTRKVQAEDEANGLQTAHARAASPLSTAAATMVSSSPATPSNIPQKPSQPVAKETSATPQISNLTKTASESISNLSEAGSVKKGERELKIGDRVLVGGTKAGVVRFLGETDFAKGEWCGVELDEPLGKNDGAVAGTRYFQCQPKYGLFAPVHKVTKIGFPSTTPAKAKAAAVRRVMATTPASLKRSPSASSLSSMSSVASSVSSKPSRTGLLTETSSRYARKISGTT
Nature of the assay: BLI; individual test 1. In general terms: In BLI a coated tip is dipped into the sample, and binding shifts an interference pattern.

For assay [2], the target named is T2, MBP-CLIP170-NT. Nature of the assay: BLI; individual test 2.

T1 sequence (O60610 1-575): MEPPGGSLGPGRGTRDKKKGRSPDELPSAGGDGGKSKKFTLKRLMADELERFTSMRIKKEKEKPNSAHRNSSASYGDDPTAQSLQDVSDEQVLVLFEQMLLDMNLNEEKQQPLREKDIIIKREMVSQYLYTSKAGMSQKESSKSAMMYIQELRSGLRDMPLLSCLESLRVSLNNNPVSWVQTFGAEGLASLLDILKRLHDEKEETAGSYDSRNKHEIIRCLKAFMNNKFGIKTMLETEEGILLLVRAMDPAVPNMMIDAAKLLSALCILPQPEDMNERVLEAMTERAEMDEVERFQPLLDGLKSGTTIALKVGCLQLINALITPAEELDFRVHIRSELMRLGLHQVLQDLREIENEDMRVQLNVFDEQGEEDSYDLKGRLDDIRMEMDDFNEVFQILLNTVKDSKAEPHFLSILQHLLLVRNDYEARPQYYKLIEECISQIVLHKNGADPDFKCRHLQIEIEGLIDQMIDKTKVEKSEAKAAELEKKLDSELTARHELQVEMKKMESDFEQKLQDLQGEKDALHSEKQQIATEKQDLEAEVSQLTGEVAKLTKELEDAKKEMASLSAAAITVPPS
Sequence of DIAPH1 (Homo sapiens) (O60610 whole entry): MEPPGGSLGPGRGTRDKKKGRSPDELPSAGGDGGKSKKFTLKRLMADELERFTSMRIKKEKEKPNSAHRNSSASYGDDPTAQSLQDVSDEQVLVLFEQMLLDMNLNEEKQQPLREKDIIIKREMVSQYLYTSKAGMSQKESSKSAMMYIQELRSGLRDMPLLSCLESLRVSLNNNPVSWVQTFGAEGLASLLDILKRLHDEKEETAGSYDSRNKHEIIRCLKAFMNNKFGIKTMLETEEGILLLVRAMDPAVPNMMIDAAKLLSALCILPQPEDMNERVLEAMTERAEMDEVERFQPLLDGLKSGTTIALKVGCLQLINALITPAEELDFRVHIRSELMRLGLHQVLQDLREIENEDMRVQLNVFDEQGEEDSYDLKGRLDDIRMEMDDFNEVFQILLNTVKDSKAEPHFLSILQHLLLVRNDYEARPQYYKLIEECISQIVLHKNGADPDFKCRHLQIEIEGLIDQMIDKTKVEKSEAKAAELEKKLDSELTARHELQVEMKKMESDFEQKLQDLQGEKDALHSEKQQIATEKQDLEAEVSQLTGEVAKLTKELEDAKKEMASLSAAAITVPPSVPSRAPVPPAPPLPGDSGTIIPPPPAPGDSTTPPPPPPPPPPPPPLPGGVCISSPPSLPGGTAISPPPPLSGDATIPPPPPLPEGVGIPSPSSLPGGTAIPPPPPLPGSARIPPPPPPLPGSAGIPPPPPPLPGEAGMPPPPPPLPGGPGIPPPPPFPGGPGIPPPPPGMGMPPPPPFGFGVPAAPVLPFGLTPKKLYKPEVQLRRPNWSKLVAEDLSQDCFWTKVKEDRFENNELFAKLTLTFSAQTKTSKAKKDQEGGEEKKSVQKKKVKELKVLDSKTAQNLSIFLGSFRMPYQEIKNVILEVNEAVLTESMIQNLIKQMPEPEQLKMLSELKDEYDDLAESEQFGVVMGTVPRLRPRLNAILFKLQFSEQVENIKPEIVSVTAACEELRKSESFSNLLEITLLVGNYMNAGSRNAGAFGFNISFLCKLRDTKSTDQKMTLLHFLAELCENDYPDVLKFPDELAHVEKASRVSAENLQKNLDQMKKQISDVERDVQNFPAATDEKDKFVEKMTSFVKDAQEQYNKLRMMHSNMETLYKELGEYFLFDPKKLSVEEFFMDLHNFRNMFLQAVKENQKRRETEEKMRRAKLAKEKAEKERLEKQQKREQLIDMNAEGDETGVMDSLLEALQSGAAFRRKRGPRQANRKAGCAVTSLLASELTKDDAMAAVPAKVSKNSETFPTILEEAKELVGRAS

On to MBP-CLIP170-NT (domain or fragment), for which, in the assay with GST-IQGAP1-DBR (human), the Kd was found to be 20.5 nM. Consider IQGAP1 (from UniProt P46940), for which, in the assay with DIAPH1 (Homo sapiens), the Kd is 81.2 nM.

B1: GST-IQGAP1-DBR (domain or fragment, human, UniProt P46940 1500-1657, looked up)
chain: KAELVKLQQTYAALNSKATFYGEQVDYYKSYIKTCLDNLASKGKVSKKPREMKGKKSKKISLKYTAARLHEKGVLLEIEDLQVNQFKNVIFEISPTEEVGDFEVKAKFMGVQMETFMLHYQDLLQLQYEGVAVMKLFDRAKVNVNLLIFLLNKKFYGK
notes: cloned into pDEST15; also called IQGAP-DBR; source: E. coli BL21, purified (glutathione beads)
For the molecule B1, in the assay with His6-DIAPH1-NT, the binding result is “binds”. Also, the Kd in the assay with MBP-CLIP170-NT [1] turned out to be 24.1 nM; with MBP-CLIP170-NT [2] it was 15.6 nM.

A word on the Kd: it is the concentration at which binding is half-saturated.
